Data: the supplement of paper PMC12764529
± gives the half width of the 95% confidence interval.

Assay: folding stability dG unfold (combined trypsin and chymotrypsin); higher = more stable
Method in brief: (§1)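 Unfolding free energy was derived, per protease or combined, against a sequence-predicted unfolded-state K50 and a shared folded-state K50, starting from K50 inferred by Bayesian fitting of sequencing counts. Digestion with trypsin and chymotrypsin was carried out on designed mini-proteins under 80 residues without cysteine in a PA-tagged cDNA display construct. Only designs with AlphaFold2 dimer inter-PAE above 15 were kept.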

Point of comparison: “SAGGSAGGGMKVKKIEIKKDPNNPNIYTITIELEDEPIEYTVPPSTPTTIKKPGGKPLYSSPLPSAGGSAGG [r6_922_JUSTAS]”, “folding stability dG unfold” value 0.567 ± 0.15 kcal/mol. Against it:
- SAGGSAGGSWVRDADGKPIPFKIDSVETKEENNPNGNRYYEIEARFPDNGKEFKATIPADDIKSAGGSAGGS [r12_823_TrROS] — lower, 0.248 ± 0.11 kcal/mol
- SAGGSAGGSAGPPIMVMVHKHDKEDGKPKIDESIPIDIPPDQQDKLKEEANERGYHVHPFSAGGSAGGSAGG [r17_18_TrROS] — lower, 0.158 ± 0.091 kcal/mol
- SAGMTITVESLEDALALAEELAEKYPGLKVTVEVRLSPDGKTVEVRVTIEPAPPVKVVDPETGEEVEEESAG [r5_870_TrROS_Hall] — higher, 3.43 ± 0.3 kcal/mol
- SAGGSAGGSAGGSDNDGAKPPKIKVEIHPVNMPPGDIVVHNDHYVIAFPNGWFFVIRPKSAGGSAGGSAGGS [r4_394_TrROS] — higher, 1.32 ± 0.14 kcal/mol
- SAGGSAGGAKPPKTVTVKVEVTNADGETQTRTVTLTNLPKDLKPGDTVTLPETGQTARIVEITPSAGGSAGG [r6_560_TrROS_Hall] — higher, 3.17 ± 0.1 kcal/mol
- SAGSPLTLSEKTSYDPSTGVTTRTFTFPDGTTRTTATVTVPGTGTLLTSTDFTQSPGTLTQSSGVAPLSAGG [r19_394_JUSTAS] — within error, 0.616 ± 0.025 kcal/mol
- GSMTIPVVLPPGVRLPLSELWAIAKQYGGKLTATVYDPETGTSTSVTFPGGQLGDSTMAPGERTVNVTVVGS [r1_238_JUSTAS] — within error, 0.759 ± 0.076 kcal/mol
- SAGGMTIVLPNGITLTFYPDRTVTATVDFPGRPLTLTLDAASLAEAVAAVERAAAEWAAPAPPVVDLSSAGG [r13_896_TrMRF] — higher, 2.72 ± 0.042 kcal/mol
- SAGGLEEIAEKIAEELKKKGYKAEIKEVVKPPTNEVVIKYTVTYKDKNEIIEEEEKEITFKLPPGLESAGGS [r8_102_JUSTAS] — within error, 0.377 ± 0.16 kcal/mol
- SAGGSAGGSSIGRTEYIPEENLIVREEPETGLTIITKKPPNGPNIVYTIEPETGEKTVEESLISAGGSAGGS [r12_55_JUSTAS] — within error, 0.292 ± 0.2 kcal/mol
- SMFRIRFKDGSEFDIELNEDGELTITNKNGKKITLTFKTKEEALKAAEELKKKYPNMKVEIEEVSPEELKSA [r9_1206_TrROS_Hall] — higher, 3.13 ± 0.12 kcal/mol
- SAGGSAGGSAGNIILPFEIESIDIEEETAIDPETGEPVKVKKILIRLKGTGKIIEISFTEKSAGGSAGGSAG [r3_424_TrMRF] — higher, 2.88 ± 0.26 kcal/mol
- SAGGSAGGSAGGSKETVKIAIKVKPGEKEITIEIKGKKYKVKVEEKDGLLYLTVSKEDLSAGGSAGGSAGGS [r4_430_TrROS_Hall] — higher, 3.34 ± 0.32 kcal/mol
- SPKIHIFIKGSIEEAVDFIRKFFPGLPIHVFDDPEQAEERAKNGDIVIAIGDEEYANRYAKKYNVPVIYISA [r9_380_TrROS] — higher, 3.12 ± 0.053 kcal/mol
- SAGGDPDGKPKIEIKIKDINVEPDPDNGYYRATIKIRFPNGREINFDIPMPPGQTAEQVKEQAREMIQSAGG [r13_578_TrROS] — higher, 1.45 ± 0.17 kcal/mol
- SAGGSAGGSAGGSGMTYRTVEIEVRLPEVPGKTVKITIVVPEGATEEEIKALAEELARKSAGGSAGGSAGGS [r4_442_TrROS_Hall] — higher, 2.94 ± 0.12 kcal/mol

Assay: folding stability dG unfold from chymotrypsin proteolysis; higher = more stable
Method in brief: as §1

Point of comparison: “SAGGSAGGSAGGSKETVKIAIKVKPGEKEITIEIKGKKYKVKVEEKDGLLYLTVSKEDLSAGGSAGGSAGGS [r4_430_TrROS_Hall]”, “folding stability dG unfold” value 3.44 ± 0.22 kcal/mol. Against it:
- SAGGSAGGSWVRDADGKPIPFKIDSVETKEENNPNGNRYYEIEARFPDNGKEFKATIPADDIKSAGGSAGGS [r12_823_TrROS] — lower, 0.526 ± 0.2 kcal/mol
- SAGGSAGGSAGPPIMVMVHKHDKEDGKPKIDESIPIDIPPDQQDKLKEEANERGYHVHPFSAGGSAGGSAGG [r17_18_TrROS] — lower, 0.0379 ± 0.11 kcal/mol
- SAGMTITVESLEDALALAEELAEKYPGLKVTVEVRLSPDGKTVEVRVTIEPAPPVKVVDPETGEEVEEESAG [r5_870_TrROS_Hall] — lower, 2.3 ± 0.12 kcal/mol
- SAGGSAGGSAGGSDNDGAKPPKIKVEIHPVNMPPGDIVVHNDHYVIAFPNGWFFVIRPKSAGGSAGGSAGGS [r4_394_TrROS] — lower, 1.61 ± 0.16 kcal/mol
- SAGGSAGGAKPPKTVTVKVEVTNADGETQTRTVTLTNLPKDLKPGDTVTLPETGQTARIVEITPSAGGSAGG [r6_560_TrROS_Hall] — lower, 3.02 ± 0.097 kcal/mol
- SAGSPLTLSEKTSYDPSTGVTTRTFTFPDGTTRTTATVTVPGTGTLLTSTDFTQSPGTLTQSSGVAPLSAGG [r19_394_JUSTAS] — lower, 0.706 ± 0.031 kcal/mol
- GSMTIPVVLPPGVRLPLSELWAIAKQYGGKLTATVYDPETGTSTSVTFPGGQLGDSTMAPGERTVNVTVVGS [r1_238_JUSTAS] — lower, 0.825 ± 0.09 kcal/mol
- SAGGMTIVLPNGITLTFYPDRTVTATVDFPGRPLTLTLDAASLAEAVAAVERAAAEWAAPAPPVVDLSSAGG [r13_896_TrMRF] — lower, 2.824 ± 0.013 kcal/mol
- SAGGLEEIAEKIAEELKKKGYKAEIKEVVKPPTNEVVIKYTVTYKDKNEIIEEEEKEITFKLPPGLESAGGS [r8_102_JUSTAS] — lower, 0.741 ± 0.14 kcal/mol
- SAGGSAGGSSIGRTEYIPEENLIVREEPETGLTIITKKPPNGPNIVYTIEPETGEKTVEESLISAGGSAGGS [r12_55_JUSTAS] — lower, -0.0944 ± 0.22 kcal/mol
- SMFRIRFKDGSEFDIELNEDGELTITNKNGKKITLTFKTKEEALKAAEELKKKYPNMKVEIEEVSPEELKSA [r9_1206_TrROS_Hall] — within error, 3.504 ± 0.016 kcal/mol
- SAGGSAGGGMKVKKIEIKKDPNNPNIYTITIELEDEPIEYTVPPSTPTTIKKPGGKPLYSSPLPSAGGSAGG [r6_922_JUSTAS] — lower, 0.986 ± 0.26 kcal/mol
- SAGGSAGGSAGNIILPFEIESIDIEEETAIDPETGEPVKVKKILIRLKGTGKIIEISFTEKSAGGSAGGSAG [r3_424_TrMRF] — lower, 3.01 ± 0.11 kcal/mol
- SPKIHIFIKGSIEEAVDFIRKFFPGLPIHVFDDPEQAEERAKNGDIVIAIGDEEYANRYAKKYNVPVIYISA [r9_380_TrROS] — within error, 3.338 ± 0.018 kcal/mol
- SAGGDPDGKPKIEIKIKDINVEPDPDNGYYRATIKIRFPNGREINFDIPMPPGQTAEQVKEQAREMIQSAGG [r13_578_TrROS] — lower, 1.24 ± 0.095 kcal/mol
- SAGGSAGGSAGGSGMTYRTVEIEVRLPEVPGKTVKITIVVPEGATEEEIKALAEELARKSAGGSAGGSAGGS [r4_442_TrROS_Hall] — lower, 2.88 ± 0.039 kcal/mol

Assay: folding stability dG unfold from trypsin proteolysis; higher = more stable
Method in brief: as §1

Point of comparison: “SAGSPLTLSEKTSYDPSTGVTTRTFTFPDGTTRTTATVTVPGTGTLLTSTDFTQSPGTLTQSSGVAPLSAGG [r19_394_JUSTAS]”, “folding stability dG unfold” value 0.392 ± 0.019 kcal/mol. Against it:
- SAGGSAGGSWVRDADGKPIPFKIDSVETKEENNPNGNRYYEIEARFPDNGKEFKATIPADDIKSAGGSAGGS [r12_823_TrROS] — lower, -0.551 ± 0.26 kcal/mol
- SAGGSAGGSAGPPIMVMVHKHDKEDGKPKIDESIPIDIPPDQQDKLKEEANERGYHVHPFSAGGSAGGSAGG [r17_18_TrROS] — lower, 0.207 ± 0.054 kcal/mol
- SAGMTITVESLEDALALAEELAEKYPGLKVTVEVRLSPDGKTVEVRVTIEPAPPVKVVDPETGEEVEEESAG [r5_870_TrROS_Hall] — higher, 3.72 ± 0.36 kcal/mol
- SAGGSAGGSAGGSDNDGAKPPKIKVEIHPVNMPPGDIVVHNDHYVIAFPNGWFFVIRPKSAGGSAGGSAGGS [r4_394_TrROS] — higher, 0.911 ± 0.064 kcal/mol
- SAGGSAGGAKPPKTVTVKVEVTNADGETQTRTVTLTNLPKDLKPGDTVTLPETGQTARIVEITPSAGGSAGG [r6_560_TrROS_Hall] — higher, 3.27 ± 0.078 kcal/mol
- GSMTIPVVLPPGVRLPLSELWAIAKQYGGKLTATVYDPETGTSTSVTFPGGQLGDSTMAPGERTVNVTVVGS [r1_238_JUSTAS] — higher, 0.527 ± 0.031 kcal/mol
- SAGGMTIVLPNGITLTFYPDRTVTATVDFPGRPLTLTLDAASLAEAVAAVERAAAEWAAPAPPVVDLSSAGG [r13_896_TrMRF] — higher, 2.56 ± 0.042 kcal/mol
- SAGGLEEIAEKIAEELKKKGYKAEIKEVVKPPTNEVVIKYTVTYKDKNEIIEEEEKEITFKLPPGLESAGGS [r8_102_JUSTAS] — lower, -0.556 ± 0.16 kcal/mol
- SAGGSAGGSSIGRTEYIPEENLIVREEPETGLTIITKKPPNGPNIVYTIEPETGEKTVEESLISAGGSAGGS [r12_55_JUSTAS] — within error, 0.445 ± 0.067 kcal/mol
- SMFRIRFKDGSEFDIELNEDGELTITNKNGKKITLTFKTKEEALKAAEELKKKYPNMKVEIEEVSPEELKSA [r9_1206_TrROS_Hall] — higher, 2.6 ± 0.059 kcal/mol
- SAGGSAGGGMKVKKIEIKKDPNNPNIYTITIELEDEPIEYTVPPSTPTTIKKPGGKPLYSSPLPSAGGSAGG [r6_922_JUSTAS] — lower, -0.626 ± 0.24 kcal/mol
- SAGGSAGGSAGNIILPFEIESIDIEEETAIDPETGEPVKVKKILIRLKGTGKIIEISFTEKSAGGSAGGSAG [r3_424_TrMRF] — higher, 2.76 ± 0.23 kcal/mol
- SAGGSAGGSAGGSKETVKIAIKVKPGEKEITIEIKGKKYKVKVEEKDGLLYLTVSKEDLSAGGSAGGSAGGS [r4_430_TrROS_Hall] — higher, 4.4 ± 0.54 kcal/mol
- SPKIHIFIKGSIEEAVDFIRKFFPGLPIHVFDDPEQAEERAKNGDIVIAIGDEEYANRYAKKYNVPVIYISA [r9_380_TrROS] — higher, 2.52 ± 0.062 kcal/mol
- SAGGDPDGKPKIEIKIKDINVEPDPDNGYYRATIKIRFPNGREINFDIPMPPGQTAEQVKEQAREMIQSAGG [r13_578_TrROS] — higher, 1.77 ± 0.025 kcal/mol
- SAGGSAGGSAGGSGMTYRTVEIEVRLPEVPGKTVKITIVVPEGATEEEIKALAEELARKSAGGSAGGSAGGS [r4_442_TrROS_Hall] — higher, 2.87 ± 0.14 kcal/mol
